Target: T1, EsxW wildtype (2Thr) (Mycobacterium tuberculosis H37Rv, UniProt P9WNI3 1-98)
T1 sequence: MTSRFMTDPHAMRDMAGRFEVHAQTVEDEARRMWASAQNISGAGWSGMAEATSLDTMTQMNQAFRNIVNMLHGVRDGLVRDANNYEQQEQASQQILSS
Test: MST

B1: EsxV (natural protein)
chain: MTINYQFGDVDAHGAMIRAQAGSLEAEHQAIISDVLTASDFWGGAGSAACQGFITQLGRNFQVIYEQANAHGQKVQAAGNNMAQTDSAVGSSWA
Which Kd does the source give for B1 here?
The Kd was 600 nM.
